Earlier results, collected in PMC5326574.

Legend:
[1] = biological target: ERK2 (Homo sapiens) (UniProt P28482); assay: NMR
[2] = biological target: Prolactin (second site) (Homo sapiens) (UniProt P01236)
[3] = biological target: Prolactin (Homo sapiens) (UniProt P01236); assay: SPR

UniProt P28482, sequence (P28482 2-360): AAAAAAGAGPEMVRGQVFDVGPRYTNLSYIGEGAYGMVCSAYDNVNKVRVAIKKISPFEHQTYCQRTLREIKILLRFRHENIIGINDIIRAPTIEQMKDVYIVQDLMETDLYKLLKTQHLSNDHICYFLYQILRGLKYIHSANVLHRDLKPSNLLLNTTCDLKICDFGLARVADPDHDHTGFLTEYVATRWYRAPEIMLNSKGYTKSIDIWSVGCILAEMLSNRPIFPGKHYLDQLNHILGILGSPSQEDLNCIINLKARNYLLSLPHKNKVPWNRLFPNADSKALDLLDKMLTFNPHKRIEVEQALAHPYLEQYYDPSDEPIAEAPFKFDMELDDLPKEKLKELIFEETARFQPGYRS

Row | Kd [1] | Kd [2] | Kd [3] | Substance
1 | 30 µM | – | – | NHE1 C-terminal distal tail (NHE1cdt) (from UniProt P19634)
2 | – | 33 µM | 0.006 µM | Prolactin receptor ECD (from UniProt P16471)
